# Measured values from US20210085770A1.
# Target: recombinant SARS-CoV-2 S1 protein expressed from insect (Sf9) cells (S1-His, SinoBiological, Cat. No. 40591-V08B1) (SARS-CoV-2) (UniProt P0DTC2)
# Assay: not given
# Sequence of Peanut Agglutinin (PNA), lectin from Arachis hypogaea (P02872 24-259 limits assumed): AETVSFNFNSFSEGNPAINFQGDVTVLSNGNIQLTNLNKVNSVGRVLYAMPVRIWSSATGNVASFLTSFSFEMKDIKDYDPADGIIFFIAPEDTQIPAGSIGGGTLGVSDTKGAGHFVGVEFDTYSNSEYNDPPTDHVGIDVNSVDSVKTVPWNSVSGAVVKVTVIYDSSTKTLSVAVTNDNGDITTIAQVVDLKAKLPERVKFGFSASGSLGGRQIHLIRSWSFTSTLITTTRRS
# Sequence of Maclura pomifera lectin (MPA) (P18674 whole entry): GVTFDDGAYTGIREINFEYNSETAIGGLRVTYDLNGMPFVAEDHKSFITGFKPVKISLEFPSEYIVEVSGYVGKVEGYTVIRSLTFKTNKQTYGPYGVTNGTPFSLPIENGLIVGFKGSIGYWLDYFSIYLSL
# Sequence of Maclura pomifera lectin (MPA) (P18676 whole entry, further chain): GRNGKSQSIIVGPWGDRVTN
row,Substance,mean fold increase of OD450
1,"SPM320 IgM anti-TF monoclonal antibody (Abnova, Cat. No. MAB13207)",5.5 fold
2,"Tn218 IgM anti-Tn monoclonal antibody (Abnova, Cat. No. MAB6198)",1.77 fold
3,mouse monoclonal IgG3 antibody JAA-F11,3.32 fold

# Target: recombinant SARS-CoV-2 S1 protein expressed from insect (Sf9) cells (S1-His, SinoBiological, Cat. No. 40591-V08B1) (SARS-CoV-2) (UniProt P0DTC2)
# Assay: ELISA, coated insect-cell S1-His, HRP-conjugated lectin 10 ug/mL
row,Substance,mean fold increase of OD450
1,Maclura pomifera lectin (MPA),7.51 fold
2,"Peanut Agglutinin (PNA), lectin from Arachis hypogaea (from UniProt P02872 24-259)",22.7 fold
3,Salvia sclarea lectin (SSA),3.97 fold
